From patent US20110300156A1 (Genmab, published 2011)

Key:
[1] = target: T1, TFECDHis (extracellular domain of tissue factor, amino acid 1-251, with C-terminal His tag) (human, UniProt P13726 33-251); assay: ELISA, Fab fragment on coated extracellular domain of TF
T1 construct: range 1-251; The stated range 1-251 starts at residue 1 of NP-001984; also called extracellular domain of TF
Description: The specificity of the obtained anti-TF HuMabs was evaluated by ELISA. ELISA plates (Microlon; Greiner Bio-One) were coated overnight at +4° C. with 0.5 μg/mL of TFECDHis in PBS, pH 7.4. Coated ELISA plates were emptied and blocked for one hour at room temperature with 2% (v/v) chicken serum (Gibco, Paisley, Scotland) in PBS and washed with PBS containing 0.05% Tween 20 (PBST). Subsequently, HuMabs, serially diluted in PBSTC (PBS supplemented with 2% (v/v) chicken serum and 0.05% (v/v) Tween-20), were incubated for 1 hr at RT under shaking conditions (300 rpm). Bound HuMabs were detected using HRP-conjugated goat-anti-human IgG antibodies (Jackson ImmunoResearch) diluted 1:5,000 in PBSTC, which were incubated for 1 hr at RT under shaking conditions (300 rpm). […] HuMab-KLH (a human monoclonal antibody against KLH (keyhole limpet haemocyanin)), was used as a negative control. Mouse anti-human TF (ERL) was used as positive control (HRP labeled anti-mouse IgG as conjugate). Binding curves were analyzed using non-linear regression (sigmoidal dose-response with variable slope) using GraphPad Prism V4.03 software.
(§1) Binding of Fab fragments of anti-TF HuMabs to TF was measured by ELISA (coated extracellular domain of TF) and by FACS (TF on BxPC3 cells). ELISA was performed essentially as described supra. Bound Fab fragments were detected using HRP-conjugated donkey-anti human H+L. FACS analysis was performed essentially as described supra. FITC-conjugated goat anti-human IgG (H+L) (Jackson) was used to detect bound lead candidates. Fluorescence was measured on a FACSCantoII. Binding curves were analyzed as described supra, using GraphPad Prism 5 software.

[2] = target: T2, human tissue factor (TF), membrane-bound on cells (human, UniProt P13726 33-295); assay: FACS, Fab fragment on BxPC3 cells
T2 construct: whole, on cells; also called cellular TF
Description: (§2) Cells were resuspended in PBS (2×10⁶ cells/ml), put in 96-well V-bottom plates (50 μl/well). 50 μl of serially diluted HuMab in FACS buffer (PBS supplemented with 0.1% BSA and 0.02% Na-azide) was added to the cells and incubated for 30 minutes on ice. After washing three times with FACS buffer, 50 μl of phycoerythrin (PE)-conjugated goat anti-human IgGFc (Jackson ImmunoResearch), diluted 1:100 in FACS buffer, was added. After 30 minutes on ice (in the dark), cells were washed three times, and specific binding of the HuMabs was detected by flow cytometry on a FACSCalibur (BD Biosciences). HuMab-KLH was used as a negative control. Mouse anti-TF followed by PE-conjugated anti-mouse IgGFc was used as positive control. Binding curves were analyzed using non-linear regression (sigmoidal dose-response with variable slope) using GraphPad Prism V4.03 software (GraphPad Software, San Diego, Calif., USA).
as §1

[3] = target: T3, murine tissue factor (TF) on transfected HEK293F cells (murine, UniProt P20352 29-294); assay: FACS on transfected HEK293F cells, 30 µg/mL antibody [Figure 18; no figure label on the sheet]
T3 construct: whole, on cells; also called murine TF; TFmm
T3 sequence (looked up): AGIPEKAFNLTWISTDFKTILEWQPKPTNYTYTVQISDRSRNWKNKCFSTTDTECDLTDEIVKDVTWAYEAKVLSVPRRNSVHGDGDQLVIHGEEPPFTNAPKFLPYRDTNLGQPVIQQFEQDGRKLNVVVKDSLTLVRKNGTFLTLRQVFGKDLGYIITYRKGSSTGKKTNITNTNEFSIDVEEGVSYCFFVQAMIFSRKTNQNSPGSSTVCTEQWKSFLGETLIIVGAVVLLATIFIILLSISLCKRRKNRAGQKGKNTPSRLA
Description: as §2
To determine domains important for binding of anti-TF HuMabs to human TF, DNA shuffling was performed between human and murine TF. Shuffle constructs were prepared from DNA encoding human TF, by replacing human domains with murine domains and from DNA encoding murine TF by replacing murine domains with human domains.

Binder | EC50 [1] [µg/mL] | EC50 [2] [µg/mL] | binding result [3]
HuMab-TF-111 Fab fragment (Fab, V domains shown, Fab fragment of the HuMab; VH and VL as for the parent antibody) VH: QVQLVESGGGVVQPGRSLRLSCAGSGFTFNRYAMYWVRQAPGKGLDWVAVISNDGINKYYADSVKGRFTISRDNSKNTLYLQMNSLRAEDTAVYYCARDHTMVRGAFDYWGQGTLVTVSS VL: EIVLTQSPATLSLSPGERATLSCRASQSVSSYLAWYQQKPGQAPRLLIYDASNRATGIPARFSGSGSGTDFTLTISSLEPEDFAVYYCQQRSNWPLTFGGGTKVEIK | 3.14 |  | 
HuMab-TF-011 Fab fragment (Fab, V domains shown, Fab fragment of the HuMab; VH and VL as for the parent antibody; also called -011 Fab fragments) VH: EVQLLESGGGLVQPGGSLRLSCAASGFTFSNYAMSWVRQAPGKGLEWVSSISGSGDYTYYTDSVKGRFTISRDNSKNTLYLQMNSLRAEDTAVYYCARSPWGYYLDSWGQGTLVTVSS VL: DIQMTQSPPSLSASAGDRVTITCRASQGISSRLAWYQQKPEKAPKSLIYAASSLQSGVPSRFSGSGSGTDFTLTISSLQPEDFATYYCQQYNSYPYTFGQGTKLEIK | 0.04 | 0.132 | 
anti-TF HuMab 017-D12 (antibody, V domains shown, Human monoclonal antibody from HuMab mice) VH: EVQLLESGGGLVQPGGSLRLSCAASGFTFSSYAMSWVRQAPGKGLEWVSAISGSGDSTNYADSVKGRFTISRDNSKNTLYLQMNSLRAEDTAVYYCAKDGYFLLWYFDLWGRGTLVTVSS VL: not shown |  |  | no binding (tested: 30 µg/mL)
HuMab-TF-044 Fab fragment (Fab, V domains shown, Fab fragment of the HuMab; VH and VL as for the parent antibody) VH: QVQLVESGGGVVQPGRSLRLSCAASGFTFSDYAMHWVRQAPGKGLEWVAVIPYDGDNKYYADSVKGRFTISRDNSKNTLYLQMNSLRAEDTAVYYCAREDWGLEVDYWGQGALVTVSS VL: AIQLTQSPSSLSASVGDRVTITCRASQGINSALAWYQQKPGKAPKLLIYDASSLESGVPSRFSGSGSGTDFTLTISSLQPEDFATYYCQQFNSYPLTFGGGTKVEIK | 0.59 | 8.04 | 

Other lines, results leading:

EC50 [1] [µg/mL] | EC50 [2] [µg/mL] | binding result [3] | Binder
0.02 | 0.143 |  | HuMab-TF-109 Fab fragment (Fab, V domains shown, Fab fragment of the HuMab; VH and VL as for the parent antibody) VH: QVQLVESGGGVVQPGRSLRLSCPASGFTFSIYAMHWVRQAPGKGLEWVAVVSNDGYNKYYADSVKGRFTISRDNSKDTLYLQMNSLRAEDTAVYYCARDGQLGRGYFDYWGQGTLVTVSS VL: EIVLTQSPATLSLSPGERAILSCRASQSVSSYLAWYQQKPGQAPRLLIYDASNRATGIPARFSGSGSGTDFTLTISSLEPEDFAVYYCQQRSNWPLTFGGGTKVEIK
0.03 | 0.301 |  | HuMab-TF-013 Fab fragment (Fab, V domains shown, Fab fragment of the HuMab; VH and VL as for the parent antibody) VH: EVQLVQSGAEVKKPGESLKISCKGSGYSFTSYWIGWVRQMPGKGLEWMGIIYPGDSDTRYSPSFQGQVTISADKSISTAYLQWSSLKASDTAMYYCARIHRGAGYSSSWPGAFDIWGQGTMVTVSS VL: DIQMTQSPSSLSASVGDRVTITCRASQGISRWLAWYQQKPEKAPKSLIYAASSLQSGVPSRFSGSGSGTDFTLTISSLQPEDFATYYCQQYDSDPITFGQGTRLEIK
1.98 |  |  | HuMab-TF-098 Fab fragment (Fab, V domains shown, Fab fragment of the HuMab; VH and VL as for the parent antibody) VH: QVQLVQSGAEVRKPGSSVKVSCKASGGSFNNYPIFWVRQAPGQGFEWMGRIIPILGITAYAQKFQGRVTITADKSTSTAYMELNSLRSEDTAVYYCAGGDDLDAFDIWGQGTMVSVSS VL: DIQMTQSPSSLSASVGDRVTITCRASQGISSWLAWYQQKPEKAPKSLIYAASSLQSGVPSRFSGSGSGTDFTLTISSLQPEDFATYYCQQYNSYPYTFGQGTKLEIK
